Laboratory results taken from the RNAGym collection of RNA variant scans (doi:10.1073/pnas.2313332121).

B1: TPR t1 (parent)
chain: GACCAAUCUGCCCUCAGAGCUCGAGAACAUCUUCGGAUGCAGAGGAGGCAGGCUUCGGUGGCGCGAUAGCGCCAACGUCCUCAACCUCCAAUGCAUCCCACCACAUGAUGAUGCCUGAAGAGCCUUGGUUUUUUG

Variants of: B1
Assay: polymerase ribozyme fitness, log enrichment relative to wild type (log ratio); higher = more active; in vitro selection for triplet polymerase activity
Procedure, shortened: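 Libraries of mutants in each subunit of a heterodimeric triplet polymerase ribozyme were generated by PCR and transcribed. In triplicate, each went through one in vitro selection round: annealing with biotinylated primer, partner subunit and triplets; frozen incubation at −7 °C; gel excision of extended constructs; streptavidin-bead capture; RT-PCR. Fitness, taken from Illumina sequencing of input and output libraries, is the logarithm of a genotype's enrichment over wild-type enrichment, averaged across replicates with inverse-variance weights. The logarithm is base 2, and genotypes needed ≥10 input reads and ≥1 read per output to be kept.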

Row | Variant | polymerase ribozyme fitness (log ratio)
1 | C13A A46C C124G | 0.675
2 | C12U G60A G69A | -4.56
3 | C13A C53G C70U | -2.31
4 | C12U G36A A66C U78C C82G A121U | -0.787
5 | C12U C72A C85A C94G A111C A119G U125A U133G | -4.02
6 | C12U G42A G128C U131G | -4.81
7 | C12U G63U A68C C123U | -4.7
8 | C12U G45C C104A G117A | -3.2
9 | C12U G47A U87C | -0.382
10 | C13A A43G | -3.45
11 | C12U C49G C56U | -0.342
12 | C12U C40U G57A G63U C88G A90G | -5.54
13 | C13A C101U G113A | -2.95
14 | C13A G36A G63A C80U | -3.86
15 | C12U C15A | -0.528
16 | C13A A26C C56A G60U C88U G113U C115U | -6.95
17 | C12U C85U A95C | -1.78
18 | C12U G113A | 0.642
19 | C12U G113U | -1.65
20 | C12U C20A | -1.94
21 | C12U U96A | -0.734
22 | C12U U96G | -0.215
23 | C12U G45U U132C | -1.19
24 | C12U C97A | -3.91

Row | Variant | polymerase ribozyme fitness (log ratio)
25 | C13A A95G U109A | -6.28
26 | C13A C79G C123A U129G | -3.45
27 | C12U C73U A95U A111U | -2.86
28 | C13A A84U G93U G117U | -6.66
29 | C12U G42U G52U A66U C72U C115A G117A | -6.98
30 | C13A A27U C101U | -4.94
31 | C12U G63C | -0.399
32 | C12U G63A | -0.293
33 | C13A C49G | -1.06
34 | C13A C49U | -1.33
35 | C12U C34A G63C | -3.05
36 | C12U C34A G63A | -5.16
37 | C12U C20G A83C C98U A121U | -4.1
38 | C13A A24U G63C A83U A84C G120U G122A U125A | -6.79
39 | C12U G45A A95C U109G G117C A118G | -5.62
40 | C13A C53U C114U G120A | -3.61
41 | C13A A50G C62A | -3.49
42 | C12U G44A U131A | -1.07
43 | C12U C82U | 0.282
44 | C12U C73A U96A C104U | -0.414
45 | C12U C70A | -0.649
46 | C12U C70U | 0.3
47 | C12U C70G | -2.05
48 | C12U G117A G127C | -0.67

Row | Variant | polymerase ribozyme fitness (log ratio)
49 | C12U G25C C94G G113A | -6.74
50 | C12U C28A C40U | -4.66
51 | C12U G44A | -0.615
52 | C12U C22U | -3.18
53 | C13A A18C C94G C114U | -5.11
54 | C12U G61A | 0.126
55 | C12U C72U C86U U112C | 1.05
56 | C12U C62U | 0.166
57 | C12U C15U G17A A83C C85A G117U | -2.34
58 | C12U C34A U106A U112C G120C C124G G128A | -5.07
59 | C13A C70U | -2.36
60 | C13A C70G | -3.31
61 | C12U G35A | -3.06
62 | C12U G17C | -3.21
63 | C12U U109G | -3.6
64 | C13A C82A C94U G110A | -3.09
65 | C13A C102A | -3.7
66 | C12U G19A G71A C73U C123A | -1.42
67 | C12U G19C A46U U112A | -0.273
68 | C13A C79A | -3.23
69 | C12U C88A A95U C104A | -3.44
70 | C12U G42A C97U | -3.11
71 | C13A C40U C49G C88A | -3.8
72 | C12U G42A A90G G128U | -2.7

Row | Variant | polymerase ribozyme fitness (log ratio)
73 | C12U U92C | -1.15
74 | C12U G39U C115A | -0.243
75 | C12U U30C G61U | -3.15
76 | C13A C20U | -3.77
77 | C12U C40G A50G C64G A103U U112C C115A A118G G127U | -5.71
78 | C13A C40A C79U | -2.13
79 | C13A G36C C53G A95C | -4.38
80 | C12U C20G U106C | -3.81
81 | C12U U125A U126C | -0.829
82 | C12U G23A | -3.55
83 | C13A C22G G69U G120U | -1.67
84 | C12U U21A C40G C89G A121G | -1.38
85 | C12U U78G U96A G120U U131A | -0.178
86 | C12U C114A | -1.12
87 | C12U C15A G52A | -0.639
88 | C12U C20A C22G U112A | -3.37
89 | C12U C53G G61C | 0.0604
90 | C12U G71C C97U | -0.967
91 | C12U C70U C76G U132C | -0.684
92 | C12U U33G C123G | -4.3
93 | C12U C15U U21G C101A | -3.11
94 | C13A A18C G36A G42U A84C | -4.45
95 | C12U G52U C53G G61C | -4.41
96 | C12U G48A C56G C72U | -1.47

Row | Variant | polymerase ribozyme fitness (log ratio)
97 | C12U G63C G93U | -1.29
98 | C13A A50C G52U G93C | -4.43
99 | C12U G44U U55C | -0.924
100 | C12U G51A | -2.09
101 | C12U G42A | -1.82
102 | C12U G42U | -0.819
103 | C13A C124A | 0.0418
104 | C12U G57A G63A G113C | -5.3
105 | C13A C20U C40U C72A A83C G117U C124A | -4.4
106 | C12U C22U A46U | -4.76
107 | C13A C53U G120U | -1.1
108 | C13A G39C | -2
109 | C13A C73A | -1.36
110 | C12U C62G C85A C88U | -2.72
111 | C12U C34U A84G C86A G113A | -6.74
112 | C13A G23C A50G G113C | -6.66
113 | C12U U54G U55A G61A G110A A118C U129A | -6.68
114 | C13A C76U C82A A103U G110C C114A G117C C123U | -7
115 | C12U G36A C62G C73A | -6.24
116 | C13A A16U | -0.236
117 | C12U U112A C115A | 1.79
118 | C12U G44C C102U | -2.5
119 | C12U G39U G61C C88G | -3.48
120 | C12U C40U C104A | -2.12

Row | Variant | polymerase ribozyme fitness (log ratio)
121 | C12U C49A | 0.257
122 | C12U G36U C94U A111G U116A | -2.07
123 | C12U C20U U21A G25U A43U C56A C115A A121U U130A | -8.29
124 | C13A C72A | -2.25
125 | C13A C72G | -1.85
126 | C12U C34U C72A U81C C102U U109G | -5.97
127 | C12U C15U C49A C73G C101U U133G | -1.62
128 | C12U G69U G77A | 0.767
129 | C12U U21G C53U A68C C124A | -6.61
130 | C13A A46C C64U U112C | -1.16
131 | C12U G17U A50G U112A | 0.845
132 | C12U G52A U78A | -0.0318
133 | C12U U14C C15G A41C U112A | -2.25
134 | C13A A27U | -3.33
135 | C13A A27C | -3.81
136 | C13A C15G U106A | -3.48
137 | C13A C70U C114G | -6.69
138 | C12U G17U A50G G63U | -3.39
139 | C12U U125A | 0.114
140 | C13A C99A | -6.93
141 | C13A C56G C73U G77U | -1.96
142 | C12U G35U C89G C115U | -6.55
143 | C13A A43G C70G U116C G117U | -6.51
144 | C13A A27U G47U | -3.3

Row | Variant | polymerase ribozyme fitness (log ratio)
145 | C12U C53G C82U G128A | -1.97
146 | C12U G39C U78A | 0.181
147 | C12U C22A G39A C85A C102A | -7.04
148 | C13A A83G A121U C123U | 0.492
149 | C13A C28U | -3.53
150 | C13A C40U C62A C123G | -0.545
151 | C12U C73U C97A G110U C115A C124G | -6.74
152 | C12U C56U G60U | -4.18
153 | C13A A90G | -1.55
154 | C13A C73U C79U U132A | -1.98
155 | C12U C49U G63U | -1.49
156 | C12U G57A G113C | -2.33
157 | C13A C53U C56U U59G | -2.18
158 | C13A C40U C72U | -2.43
159 | C12U G42A G61A G110A | -4.38
160 | C12U C34U G61A C104U U132A U133G | -3.5
161 | C12U C62A U81G C115A | -2.91
162 | C13A A29G U55A C76G C101G C102A U112C | -8.04
163 | C12U G71U A90G A121G | 1.71
164 | C12U G47U C85G A111C | -2.51
165 | C12U C20A G120A U132C | -1.48
166 | C12U U21A G35A A74G | -4.28
167 | C12U G45A G51U | -3.98
